Experimental data published in patent publication US20220177596A1 (Bristol-Myers Squibb, published 2022).
Substitutions are numbered along the chain they refer to.

B1: humanized Y1238 hz4 (hz-HC1 / hz-LC4), IgG1.3f (antibody, V domains shown)
VH: QVQLVQSGAEVKKPGASVKVSCKASGYAFTNYLIEWVRQAPGQGLEWMGVINPGSGGTNYNEKFKGRVTMTRDTSISTAYMELSRLRSDDTAVYYCARSQLGRRFDYWGQGTLVTVSS
VL: DIQMTQSPSSLSASVGDRVTITCKASQDVRTGVAWYQQKPGQSPKLLIYSASYRNTGVPSRFSGSRSGTDFTFTISSLQAEDIAVYYCQQHYSPPYTFGGGTKVEIK
notes: IgG1.3f heavy constant, common CL; expression supernatant; also called Sup 4
B2: humanized Y1238 hz28 (hz-HC6 / hz-LC3), IgG1.3f (antibody, V domains shown)
VH: B1 VH with A40R, M70L, R72A, T74K
VL: B1 VL with A80P
notes: IgG1.3f heavy constant, common CL; expression supernatant; also called Sup 28
B3: humanized Y1238 hz24 (hz-HC5 / hz-LC4), IgG1.3f (antibody, V domains shown)
VH: B1 VH with A40R, R72A, T74K
VL: B1 VL
notes: IgG1.3f heavy constant, common CL; expression supernatant; also called Sup 24
B4: humanized Y1238 hz39 (hz-HC8 / hz-LC4), IgG1.3f (antibody, V domains shown)
VH: B1 VH with K12V, A40R, M70L, R72A, T74K, I76S, E82Q, Y95F
VL: B1 VL
notes: IgG1.3f heavy constant, common CL; expression supernatant; also called Sup 39
B5: humanized Y1238 hz32 (hz-HC7 / hz-LC2), IgG1.3f (antibody, V domains shown)
VH: B1 VH with K12V, A40R, R72A, T74K, I76S, E82Q, Y95F
VL: B1 VL with Q42K, S43A, A80P, V85T
notes: IgG1.3f heavy constant, common CL; expression supernatant; also called Sup 32
B6: humanized Y1238 hz3 (hz-HC1 / hz-LC3), IgG1.3f (antibody, V domains shown)
VH: B1 VH
VL: B1 VL with A80P
notes: IgG1.3f heavy constant, common CL; expression supernatant; also called Sup 3
B7: humanized Y1238 hz37 (hz-HC8 / hz-LC2), IgG1.3f (antibody, V domains shown)
VH: B1 VH with K12V, A40R, M70L, R72A, T74K, I76S, E82Q, Y95F
VL: B1 VL with Q42K, S43A, A80P, V85T
notes: IgG1.3f heavy constant, common CL; expression supernatant; also called Sup 37
B8: humanized Y1238 hz40 (hz-HC8 / hz-LC5), IgG1.3f (antibody, V domains shown)
VH: B1 VH with K12V, A40R, M70L, R72A, T74K, I76S, E82Q, Y95F
VL: B1 VL with S43A, A80P
notes: IgG1.3f heavy constant, common CL; expression supernatant; also called Sup 40
B9: humanized Y1238 hz29 (hz-HC6 / hz-LC4), IgG1.3f (antibody, V domains shown)
VH: B1 VH with A40R, M70L, R72A, T74K
VL: B1 VL
notes: IgG1.3f heavy constant, common CL; expression supernatant; also called Sup 29
B10: humanized Y1238 hz2 (hz-HC1 / hz-LC2), IgG1.3f (antibody, V domains shown)
VH: B1 VH
VL: B1 VL with Q42K, S43A, A80P, V85T
notes: IgG1.3f heavy constant, common CL; expression supernatant; also called Sup 2
B11: humanized Y1238 hz42 (hz-HC9 / hz-LC2), IgG1.3f (antibody, V domains shown)
VH: B1 VH with K12V, A40R, M70L, R72A, T74K, I76S, E82Q, Y95F, L113T
VL: B1 VL with Q42K, S43A, A80P, V85T
notes: IgG1.3f heavy constant, common CL; expression supernatant; also called Sup 42
B12: humanized Y1238 hz18 (hz-HC4 / hz-LC3), IgG1.3f (antibody, V domains shown)
VH: B1 VH with R72A, T74K
VL: B1 VL with A80P
notes: IgG1.3f heavy constant, common CL; expression supernatant; also called Sup 18
B13: humanized Y1238 hz23 (hz-HC5 / hz-LC3), IgG1.3f (antibody, V domains shown)
VH: B1 VH with A40R, R72A, T74K
VL: B1 VL with A80P
notes: IgG1.3f heavy constant, common CL; expression supernatant; also called Sup 23
B14: humanized Y1238 hz34 (hz-HC7 / hz-LC4), IgG1.3f (antibody, V domains shown)
VH: B1 VH with K12V, A40R, R72A, T74K, I76S, E82Q, Y95F
VL: B1 VL
notes: IgG1.3f heavy constant, common CL; expression supernatant; also called Sup 34
B15: humanized Y1238 hz10 (hz-HC2 / hz-LC5), IgG1.3f (antibody, V domains shown)
VH: B1 VH with R72A
VL: B1 VL with S43A, A80P
notes: IgG1.3f heavy constant, common CL; expression supernatant; also called Sup 10
B16: humanized Y1238 hz16 (hz-HC4 / hz-LC1), IgG1.3f (antibody, V domains shown)
VH: B1 VH with R72A, T74K
VL: B1 VL with Q42K, S43A, R66G, A80P, V85T
notes: IgG1.3f heavy constant, common CL; expression supernatant; also called Sup 16
B17: humanized Y1238 hz31 (hz-HC7 / hz-LC1), IgG1.3f (antibody, V domains shown)
VH: B1 VH with K12V, A40R, R72A, T74K, I76S, E82Q, Y95F
VL: B1 VL with Q42K, S43A, R66G, A80P, V85T
notes: IgG1.3f heavy constant, common CL; expression supernatant; also called Sup 31
B18: humanized Y1238 hz20 (hz-HC4 / hz-LC5), IgG1.3f (antibody, V domains shown)
VH: B1 VH with R72A, T74K
VL: B1 VL with S43A, A80P
notes: IgG1.3f heavy constant, common CL; expression supernatant; also called Sup 20

Target: T1, human-CD40 monomer (human, UniProt P25942 21-193, limits assumed)
T1 construct: also called hCD40-monomer; human-CD40-monomer protein
T1 sequence (P25942 21-193 limits assumed): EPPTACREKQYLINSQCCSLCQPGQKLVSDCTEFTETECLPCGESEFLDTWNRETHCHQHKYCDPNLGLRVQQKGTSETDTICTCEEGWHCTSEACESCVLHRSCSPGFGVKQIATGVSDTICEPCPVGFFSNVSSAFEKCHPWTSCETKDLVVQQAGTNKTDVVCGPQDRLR
Test: SPR 2 pt screen, Ab on protein A
Protocol: The VH sequences were formatted in the context of an IgG1.3f isotype. The Vκ sequences were formatted as a full light chain with a common CL sequence. All 55 combinations of these humanized HC and LC constructs, as well as the chimeric Y1238 molecule were expressed as 3 ml supernatants for binding analysis by SPR. Each of the 56 supernatants, as well as a purified Y1238-chimeric IgG1 antibody, was captured on a protein A sensor chip and tested for binding to two concentrations (i.e., 200 nM and 1000 nM) of hCD40-monomer using BIAcore™ SPR in a screening assay. All antibodies, except for those containing hz-HC3, captured at high levels (>300 RU) using a 100-fold dilution of the expression supernatant, indicating a high antibody titer in the supernatant except for the hz-HC3 samples. The kinetic data for the two concentrations of hCD40-monomer were fit to a 1:1 Langmuir model, to yield estimates of the kinetic and affinity values for these interactions, and for comparison of the different molecules. […] Also, for a given heavy chain, the antibodies with light chains hz-LC1 or hz-LC2 had higher CD40 affinity than those with hz-LC3, hz-LC4 or hz-LC5.

Binder | Kd | koff | kon
B1 | 8.9 nM | 0.00042 s⁻¹ | 48000 M⁻¹ s⁻¹
B2 | 5.6 nM | 0.00024 s⁻¹ | 42000 M⁻¹ s⁻¹
B3 | 7.4 nM | 0.00032 s⁻¹ | 43000 M⁻¹ s⁻¹
B4 | 7.5 nM | 0.0003 s⁻¹ | 40000 M⁻¹ s⁻¹
B5 | 4.5 nM | 0.00017 s⁻¹ | 37000 M⁻¹ s⁻¹
B6 | 10 nM | 0.00048 s⁻¹ | 48000 M⁻¹ s⁻¹
B7 | 2.8 nM | 0.00011 s⁻¹ | 37000 M⁻¹ s⁻¹
B8 | 6.5 nM | 0.00026 s⁻¹ | 39000 M⁻¹ s⁻¹
B9 | 6.5 nM | 0.00028 s⁻¹ | 42000 M⁻¹ s⁻¹
B10 | 5.2 nM | 0.00023 s⁻¹ | 45000 M⁻¹ s⁻¹
B11 | 5.4 nM | 0.0002 s⁻¹ | 36000 M⁻¹ s⁻¹
B12 | 7.6 nM | 0.00035 s⁻¹ | 46000 M⁻¹ s⁻¹
B13 | 7.2 nM | 0.00031 s⁻¹ | 43000 M⁻¹ s⁻¹
B14 | 7.1 nM | 0.00028 s⁻¹ | 40000 M⁻¹ s⁻¹
B15 | 5.9 nM | 0.00027 s⁻¹ | 45000 M⁻¹ s⁻¹
B16 | 2.7 nM | 0.00012 s⁻¹ | 45000 M⁻¹ s⁻¹
B17 | 3 nM | 0.00012 s⁻¹ | 39000 M⁻¹ s⁻¹
B18 | 8.3 nM | 0.00037 s⁻¹ | 45000 M⁻¹ s⁻¹
